Test results taken from patent US20260297200 (published 2026).
Values belong to the binder of their own block, whether it stands above or below them.

Assays:
CD3 on Jurkat = CD3 on Jurkat (human, UniProt P07766); assay: FACS, Jurkat
human EGFR on cells [1] = target: T1, human EGFR on cells (human, UniProt P00533); assay: FACS, HCT-116
human EGFR on cells [2] = target: T1, human EGFR on cells; assay: FACS, SW620
human EGFR on cells [3] = target: T1, human EGFR on cells; assay: FACS, FaDu
human EGFR on cells [4] = target: T1, human EGFR on cells; assay: FACS, LIM1215
human EGFR on cells [5] = target: T1, human EGFR on cells; assay: FACS, FaDu; remark: listed apart in the source
EGFR-His (human ECD) = EGFR-His (human ECD) (human); assay: BLI
EGFR-moIgG2a-Fc = EGFR-moIgG2a-Fc (human); assay: ELISA

Sequence of CD3 on Jurkat (P07766 23-207): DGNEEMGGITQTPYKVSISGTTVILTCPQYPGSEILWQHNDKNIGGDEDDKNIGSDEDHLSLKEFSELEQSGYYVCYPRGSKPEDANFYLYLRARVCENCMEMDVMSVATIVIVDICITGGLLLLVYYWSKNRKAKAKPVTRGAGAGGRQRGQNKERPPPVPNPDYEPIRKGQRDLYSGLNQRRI

EC50 (CD3 on Jurkat): > 10 nM
B1: scDb-scFv YU250-H10xhuU3 CD3 arm (antibody, V domains shown)
VH: QVQLVQSGAEVKKPGSSVKVSCKASGGTFSGYTMNWVRQAPGQGLEWMGLINPYKGVSTYNGKFKDRVTITADKSTSTAYMELSSLRSEDTAVYYCARSGYYGDSDWYFDVWGQGTLVTVSS
VL: DIQMTQSPSSLSASVGDRVTITCRASQDIRNYLNWYQQKPGKAPKLLIYYTSRLHSGVPSRFSGSGSGTDFTFTISSLQPEDIATYYCQQGNTLPWTFGQGTKLEIKR

EC50 (CD3 on Jurkat): 7.56 nM
B2: scDb YU250-H10xhuU3 CD3 arm (antibody, V domains shown)
VH: QVQLVQSGAEVKKPGSSVKVSCKASGGTFSGYTMNWVRQAPGQGLEWMGLINPYKGVSTYNGKFKDRVTITADKSTSTAYMELSSLRSEDTAVYYCARSGYYGDSDWYFDVWGQGTLVTVSS
VL: DIQMTQSPSSLSASVGDRVTITCRASQDIRNYLNWYQQKPGKAPKLLIYYTSRLHSGVPSRFSGSGSGTDFTFTISSLQPEDIATYYCQQGNTLPWTFGQGTKLEIKR

EC50 (CD3 on Jurkat): > 10 nM
B3: eIg YU250-H10xhuU3 CD3 arm (antibody, V domains shown)
VH: QVQLVQSGAEVKKPGSSVKVSCKASGGTFSGYTMNWVRQAPGQGLEWMGLINPYKGVSTYNGKFKDRVTITADKSTSTAYMELSSLRSEDTAVYYCARSGYYGDSDWYFDVWGQGTLVTVSS
VL: DIQMTQSPSSLSASVGDRVTITCRASQDIRNYLNWYQQKPGKAPKLLIYYTSRLHSGVPSRFSGSGSGTDFTFTISSLQPEDIATYYCQQGNTLPWTFGQGTKLEIKR

EC50 (CD3 on Jurkat): > 10 nM
B4: Fab-eIg YU250-H10xhuU3 CD3 arm (antibody, V domains shown)
VH: QVQLVQSGAEVKKPGSSVKVSCKASGGTFSGYTMNWVRQAPGQGLEWMGLINPYKGVSTYNGKFKDRVTITADKSTSTAYMELSSLRSEDTAVYYCARSGYYGDSDWYFDVWGQGTLVTVSS
VL: DIQMTQSPSSLSASVGDRVTITCRASQDIRNYLNWYQQKPGKAPKLLIYYTSRLHSGVPSRFSGSGSGTDFTFTISSLQPEDIATYYCQQGNTLPWTFGQGTKLEIKR

EC50 (human EGFR on cells [1]): 4.28 nM | EC50 (human EGFR on cells [2]): 0.74 nM | EC50 (human EGFR on cells [3]): 3.28 nM
B5: eIg MKU011-A7xhuU3 EGFR arm (antibody, V domains shown)
VH: QVQLVQSGGGVVQPGGSLRLSCAASGFTFSSYGMHWVRQAPGKGLEWVAFIRYDGSNKYYADSVKGRFTISRDNSKNTLYLQMNSLRAEDTAVYYCAKDGNSGYDSMDYWGQGTLVTVSS
VL: QPVLTQSPSASGTPGQRVTISCSGVSSNIGRNYVYWYQQFPGTAPKLLIYATHQRPSGVPDRFSGSKSGTSASLAISGLRSEDEANYYCAAWDDGVTGWVFGGGTKLTVLG

EC50 (human EGFR on cells [4]): 1.02 nM | EC50 (human EGFR on cells [5]): 1.68 nM
B6: scDb YU250-H10xhuU3 EGFR arm (antibody)
chain 1: QVQLVQSGGGVVQPGGSLRLSCAASGFTFSSYGMHWVRQAPGKGLEWVAFIRYDGSNKYYADSVKGRFTISRDNSKNTLYLQMNSLRAEDTAVYYCAKDGNSGYDSMDYWGQGTLVTVSS
chain 2: QSVLTQPPSVSGAPGQRVTISCSGGSSNVGRNGVNWFQHLPEKAPKLLIYYDAFLSSGVSDRFSGSKSGTSASLAIRGLQSDDEADYYCAAWDDSLYSWVFGGGTNLTVL

Kd (EGFR-His (human ECD)): 4.17 nM
B7: YU250-H10 Fab-His (antibody)
chain 1: QVQLVQSGGGVVQPGGSLRLSCAASGFTFSSYGMHWVRQAPGKGLEWVAFIRYDGSNKYYADSVKGRFTISRDNSKNTLYLQMNSLRAEDTAVYYCAKDGNSGYDSMDYWGQGTLVTVSS
chain 2: QSVLTQPPSVSGAPGQRVTISCSGGSSNVGRNGVNWFQHLPEKAPKLLIYYDAFLSSGVSDRFSGSKSGTSASLAIRGLQSDDEADYYCAAWDDSLYSWVFGGGTNLTVL

Kd (EGFR-His (human ECD)): 12.9 nM
B8: YU250-A02 Fab-His (antibody, V domains shown)
VH: QVQLQESGGGVVQPGGSLRLSCAASGFTFSSYGMHWVRQAPGKGLEWVAFIRYDGSNKYYADSVKGRFTISRDNSKNTLYLQMNSLRAEDTAVYYCAKDGNSGYDSMDYWGQGTLVTVSS
VL: QSVLTQPPSVSGAPGQRVTISCSGGSSNVGRNGVNWFQHLPEKAPKLLIYYDAFLSSGVSDRFSGSKSGTSASLAIRGLQSEDEADYYCASWDDSLTGWVFGGGTKLTVL

EC50 (human EGFR on cells [1]): 0.13 nM | EC50 (human EGFR on cells [5]): 0.76 nM | EC50 (human EGFR on cells [2]): 0.03 nM | EC50 (human EGFR on cells [3]): 0.32 nM
B9: Fab-eIg YU250-H10xhuU3 EGFR arm (antibody)
chain 1: QVQLVQSGGGVVQPGGSLRLSCAASGFTFSSYGMHWVRQAPGKGLEWVAFIRYDGSNKYYADSVKGRFTISRDNSKNTLYLQMNSLRAEDTAVYYCAKDGNSGYDSMDYWGQGTLVTVSS
chain 2: QSVLTQPPSVSGAPGQRVTISCSGGSSNVGRNGVNWFQHLPEKAPKLLIYYDAFLSSGVSDRFSGSKSGTSASLAIRGLQSDDEADYYCAAWDDSLYSWVFGGGTNLTVL

EC50 (EGFR-moIgG2a-Fc): 0.5 nM
B10: Fab-eIg 2+2 H10x3-43 EGFR arm (antibody)
chain 1: QVQLVQSGGGVVQPGGSLRLSCAASGFTFSSYGMHWVRQAPGKGLEWVAFIRYDGSNKYYADSVKGRFTISRDNSKNTLYLQMNSLRAEDTAVYYCAKDGNSGYDSMDYWGQGTLVTVSS
chain 2: QSVLTQPPSVSGAPGQRVTISCSGGSSNVGRNGVNWFQHLPEKAPKLLIYYDAFLSSGVSDRFSGSKSGTSASLAIRGLQSDDEADYYCAAWDDSLYSWVFGGGTNLTVL

EC50 (EGFR-moIgG2a-Fc): 0.9 nM
B11: Db3-43xH10-Ig EGFR arm (antibody)
chain 1: QVQLVQSGGGVVQPGGSLRLSCAASGFTFSSYGMHWVRQAPGKGLEWVAFIRYDGSNKYYADSVKGRFTISRDNSKNTLYLQMNSLRAEDTAVYYCAKDGNSGYDSMDYWGQGTLVTVSS
chain 2: QSVLTQPPSVSGAPGQRVTISCSGGSSNVGRNGVNWFQHLPEKAPKLLIYYDAFLSSGVSDRFSGSKSGTSASLAIRGLQSDDEADYYCAAWDDSLYSWVFGGGTNLTVL

EC50 (human EGFR on cells [4]): 0.31 nM | EC50 (human EGFR on cells [5]): 0.74 nM
B12: scDb-scFv YU250-H10xhuU3 EGFR arm (antibody)
chain 1: QVQLVQSGGGVVQPGGSLRLSCAASGFTFSSYGMHWVRQAPGKGLEWVAFIRYDGSNKYYADSVKGRFTISRDNSKNTLYLQMNSLRAEDTAVYYCAKDGNSGYDSMDYWGQGTLVTVSS
chain 2: QSVLTQPPSVSGAPGQRVTISCSGGSSNVGRNGVNWFQHLPEKAPKLLIYYDAFLSSGVSDRFSGSKSGTSASLAIRGLQSDDEADYYCAAWDDSLYSWVFGGGTNLTVL

EC50 (human EGFR on cells [1]): 0.16 nM | EC50 (human EGFR on cells [2]): 0.03 nM | EC50 (human EGFR on cells [3]): 0.4 nM
B13: Fab-eIg MKU011-A7xhuU3 EGFR arm (antibody, V domains shown)
VH: QVQLVQSGGGVVQPGGSLRLSCAASGFTFSSYGMHWVRQAPGKGLEWVAFIRYDGSNKYYADSVKGRFTISRDNSKNTLYLQMNSLRAEDTAVYYCAKDGNSGYDSMDYWGQGTLVTVSS
VL: QPVLTQSPSASGTPGQRVTISCSGVSSNIGRNYVYWYQQFPGTAPKLLIYATHQRPSGVPDRFSGSKSGTSASLAISGLRSEDEANYYCAAWDDGVTGWVFGGGTKLTVL

Kd (EGFR-His (human ECD)): 55.8 nM
B14: MKU011-A7 Fab-His (antibody, V domains shown)
VH: QVQLVQSGGGVVQPGGSLRLSCAASGFTFSSYGMHWVRQAPGKGLEWVAFIRYDGSNKYYADSVKGRFTISRDNSKNTLYLQMNSLRAEDTAVYYCAKDGNSGYDSMDYWGQGTLVTVSS
VL: QPVLTQSPSASGTPGQRVTISCSGVSSNIGRNYVYWYQQFPGTAPKLLIYATHQRPSGVPDRFSGSKSGTSASLAISGLRSEDEANYYCAAWDDGVTGWVFGGGTKLTVL

EC50 (human EGFR on cells [1]): 0.46 nM | EC50 (human EGFR on cells [4]): 0.85 nM | EC50 (human EGFR on cells [5]): 2.17 nM | EC50 (human EGFR on cells [2]): 0.21 nM
B15: eIg YU250-H10xhuU3 EGFR arm (antibody)
chain 1: not shown
chain 2: QSVLTQPPSVSGAPGQRVTISCSGGSSNVGRNGVNWFQHLPEKAPKLLIYYDAFLSSGVSDRFSGSKSGTSASLAIRGLQSDDEADYYCAAWDDSLYSWVFGGGTNLTVLGQPKAAPSVTLFPPSSEELQANKATLVCLISDFYPGAVTVAWKADSSPVKAGVETTTPSKQSNNKYAASSYLSLTPEQWKSHRSYSCQVTHEGSTVEKTVAPTECS

EC50 (EGFR-moIgG2a-Fc): 0.3 nM
B16: Fab/scFv-Fc H10x3-43 EGFR arm (antibody)
chain 1: not shown
chain 2: QSVLTQPPSVSGAPGQRVTISCSGGSSNVGRNGVNWFQHLPEKAPKLLIYYDAFLSSGVSDRFSGSKSGTSASLAIRGLQSDDEADYYCAAWDDSLYSWVFGGGTNLTVLGQPKAAPSVTLFPPSSEELQANKATLVCLISDFYPGAVTVAWKADSSPVKAGVETTTPSKQSNNKYAASSYLSLTPEQWKSHRSYSCQVTHEGSTVEKTVAPTECS

EC50 (EGFR-moIgG2a-Fc): 0.5 nM
B17: eIg 1+1 H10x3-43 EGFR arm (antibody)
chain 1: not shown
chain 2: QSVLTQPPSVSGAPGQRVTISCSGGSSNVGRNGVNWFQHLPEKAPKLLIYYDAFLSSGVSDRFSGSKSGTSASLAIRGLQSDDEADYYCAAWDDSLYSWVFGGGTNLTVLGQPKAAPSVTLFPPSSEELQANKATLVCLISDFYPGAVTVAWKADSSPVKAGVETTTPSKQSNNKYAASSYLSLTPEQWKSHRSYSCQVTHEGSTVEKTVAPTECS

EC50 (EGFR-moIgG2a-Fc): 1.1 nM
B18: eIg 1+1 H10x5D5 EGFR arm (antibody)
chain 1: not shown
chain 2: QSVLTQPPSVSGAPGQRVTISCSGGSSNVGRNGVNWFQHLPEKAPKLLIYYDAFLSSGVSDRFSGSKSGTSASLAIRGLQSDDEADYYCAAWDDSLYSWVFGGGTNLTVLGQPKAAPSVTLFPPSSEELQANKATLVCLISDFYPGAVTVAWKADSSPVKAGVETTTPSKQSNNKYAASSYLSLTPEQWKSHRSYSCQVTHEGSTVEKTVAPTECS

EC50 (EGFR-moIgG2a-Fc): 6.2 nM
B19: eIg 1+1 H10x4D5 EGFR arm (antibody)
chain 1: not shown
chain 2: QSVLTQPPSVSGAPGQRVTISCSGGSSNVGRNGVNWFQHLPEKAPKLLIYYDAFLSSGVSDRFSGSKSGTSASLAIRGLQSDDEADYYCAAWDDSLYSWVFGGGTNLTVLGQPKAAPSVTLFPPSSEELQANKATLVCLISDFYPGAVTVAWKADSSPVKAGVETTTPSKQSNNKYAASSYLSLTPEQWKSHRSYSCQVTHEGSTVEKTVAPTECS

EC50 (EGFR-moIgG2a-Fc): 0.1 nM
B20: Db3-43x3-43/FabH10-Fckih EGFR arm (antibody)
chain 1: not shown
chain 2: QSVLTQPPSVSGAPGQRVTISCSGGSSNVGRNGVNWFQHLPEKAPKLLIYYDAFLSSGVSDRFSGSKSGTSASLAIRGLQSDDEADYYCAAWDDSLYSWVFGGGTNLTVLGQPKAAPSVTLFPPSSEELQANKATLVCLISDFYPGAVTVAWKADSSPVKAGVETTTPSKQSNNKYAASSYLSLTPEQWKSHRSYSCQVTHEGSTVEKTVAPTECS
